# Reference: publication PMC4558366 (Cell reports, 2015)
# T1: UHRF1_(647-687) (human, UniProt Q96T88-2 647-687)
# T1 chain (looked up): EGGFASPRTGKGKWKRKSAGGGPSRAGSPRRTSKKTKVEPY
# B1: USP7 UBL1-2 E736A (domain or fragment)
# chain: EAHLYMQVQIVAEDQFCGHQGNDMYDEEKVKYTVFKVLKNSSLAEFVQSLSQTMGFPQDQIRLWPMQARSNGTKRPAMLDNEADGNKTMIELSDNENPWTIFLETVDPELAASGATLPKFDKDHDVMLFLKMYDPKTRSLNYCGHIYTPISCKIRDLLPVMCDRAGFIQDTSLILYAEVKPNLTERIQDYDVSLDKALDELMDGDIIVFQKDDPENDNSELPTAKEYFRDLYH
# Molecular target: T1, UHRF1_(647-687)
# Experiment: ITC
binder,measurement,value
B1,fold reduction of binding affinity against wild type,4 fold
